The series deals with the molecule itself. Put plainly: reduced and non-reduced SDS-PAGE and Western blot of 293HEK cell lysate and culture media (homodimer formation). An excerpt: The formation of disulfide bonded dimers of modified α-GAL was examined in cell lysate and culture media (FIG. 2A). Clones of each α-GAL construct were transiently expressed in 293HEK cell. Cell lysates and culture media were run on 4-12% gradient SDS-PAGE and transferred to nitrocellulose. α-GAL was detected by Western Blotting with rabbit monoclonal anti- α-GAL 1:2000 (abcam ab168341).
Reduced and non-reduced samples were subjected to electrophoresis and Western blotting.
For orientation: In western blotting, separated proteins are transferred to a membrane and probed.

Positions count from the first letter of the chain named. Numbers in names are those of the source.

B1: Human α-GAL M51C-G360C (enzyme)
chain: LDNGLARTPTMGWLHWERFCCNLDCQEEPDSCISEKLFMEMAELMVSEGWKDAGYEYLCIDDCWMAPQRDSEGRLQADPQRFPHGIRQLANYVHSKGLKLGIYADVGNKTCAGFPGSFGYYDIDAQTFADWGVDLLKFDGCYCDSLENLADGYKHMSLALNRTGRSIVYSCEWPLYMWPFQKPNYTEIRQYCNHWRNFADIDDSWKSIKSILDWTSFNQERIVDVAGPGGWNDPDMLVIGNFGLSWNQQVTQMALWAIMAAPLFMSNDLRHISPQAKALLQDKDVIAINQDPLGKQGYQLRQGDNFEVWERPLSGLAWAVAMINRQEICGPRSYTIAVASLGKGVACNPACFITQLLPVKRKLGFYEWTSRLRSHINPTGTVLLQLENTMQMSLKDLL
notes: It is the full precursor entry; Transiently expressed in 293HEK cells, tested in cell lysate and culture media; also called M51C-G360C α-GAL; modified α-galactosidase A
For B1, the binding result is “binds”.

B2: Human α-GAL D233C-I359C (enzyme)
chain: B1 chain with C20M, D202C, I328C, C329G
notes: It is the full precursor entry; Transiently expressed in 293HEK cells, tested in cell lysate and culture media; also called D233C-I359C α-GAL; modified α-galactosidase A
In the case of B2, the binding result is recorded as “binds”.

For the origin of these results see patent US20200147241A1 (AMICUS THERAPEUTICS, published 2020).
